{
  "source": "patent US20250223280A1",
  "key": {"IgG [1]": {"target": "IgG", "experiment": "SPR, IgG immobilised on CM5 chip, compound as analyte; value from the legend of the grade (**** = Kd <100 nM)"}, "IgG [2]": {"target": "IgG", "experiment": "SPR, IgG immobilised on CM5 chip, compound as analyte; value from the legend of the grade (++++ = Kd <100 nM)"}},
  "note": "*1 amine or outer side, *2 acyl side, *3 side chain or, on linkers, in order; H or OH if unused. Bridges are numbered along the chain shown (N, C = ends). [ ]: non-standard residue; d: D form. N5,N5‑dimethylglutamine = CN(C)C(=O)CC[C@H](N[*:1])C(=O)[*:2]; Pro(4S-NH2) = N[C@@H]1CN[C@H](C(=O)O)C1",
  "data": [
    {"binder": "PDCAWHLGELVWCTP (residue 1 = (2S,4S)-4-aminoproline; residue 12 = 6-chlorotryptophan; residue 15 = D-Pro; backbone cyclised head to tail; disulfide Cys3-Cys13)", "note": "[Intermediate 19]", "values": [
      {"measurement": "Kd", "setting": "IgG [1]", "value": "< 100", "unit": "nM"},
      {"measurement": "Kd", "setting": "IgG [2]", "value": "< 100", "unit": "nM"}
    ]},
    {"binder": "cyclo([Pro(4S-NH2)]DCAWHLG[N5,N5‑dimethylglutamine]LVWCT[dP]) (disulfide 3-13; SMILES CC(C)C[C@@H]1NC(=O)[C@H](Cc2c[nH]cn2)NC(=O)[C@H](Cc2c[nH]c3ccccc23)NC(=O)[C@H](C)NC(=O)[C@@H]2CSSC[C@H](NC(=O)[C@H](Cc3c[nH]c4ccccc34)NC(=O)[C@H](C(C)C)NC(=O)[C@H](CC(C)C)NC(=O)[C@H](CCC(=O)N(C)C)NC(=O)CNC1=O)C(=O)N[C@@H]([C@@H](C)O)C(=O)N1CCC[C@@H]1C(=O)N1C[C@@H](N)C[C@H]1C(=O)N[C@@H](CC(=O)O)C(=O)N2)", "note": "[Intermediate 23]", "values": [
      {"measurement": "Kd", "setting": "IgG [1]", "value": "< 100", "unit": "nM"},
      {"measurement": "Kd", "setting": "IgG [2]", "value": "< 100", "unit": "nM"}
    ]},
    {"binder": "cyclo([Pro(4S-NH2)]ACAWHLG[N5,N5‑dimethylglutamine]LVWCT[dP]) (disulfide 3-13; SMILES CC(C)C[C@@H]1NC(=O)[C@H](Cc2c[nH]cn2)NC(=O)[C@H](Cc2c[nH]c3ccccc23)NC(=O)[C@H](C)NC(=O)[C@@H]2CSSC[C@H](NC(=O)[C@H](Cc3c[nH]c4ccccc34)NC(=O)[C@H](C(C)C)NC(=O)[C@H](CC(C)C)NC(=O)[C@H](CCC(=O)N(C)C)NC(=O)CNC1=O)C(=O)N[C@@H]([C@@H](C)O)C(=O)N1CCC[C@@H]1C(=O)N1C[C@@H](N)C[C@H]1C(=O)N[C@@H](C)C(=O)N2)", "note": "[Intermediate 26]", "values": [
      {"measurement": "Kd", "setting": "IgG [1]", "value": "< 100", "unit": "nM"},
      {"measurement": "Kd", "setting": "IgG [2]", "value": "< 100", "unit": "nM"}
    ]},
    {"binder": "cyclo([Pro(4S-NH2)]DCTWHLGELVWCT[dP]) (disulfide 3-13; SMILES CC(C)C[C@@H]1NC(=O)[C@H](Cc2c[nH]cn2)NC(=O)[C@H](Cc2c[nH]c3ccccc23)NC(=O)[C@H]([C@@H](C)O)NC(=O)[C@@H]2CSSC[C@H](NC(=O)[C@H](Cc3c[nH]c4ccccc34)NC(=O)[C@H](C(C)C)NC(=O)[C@H](CC(C)C)NC(=O)[C@H](CCC(=O)O)NC(=O)CNC1=O)C(=O)N[C@@H]([C@@H](C)O)C(=O)N1CCC[C@@H]1C(=O)N1C[C@@H](N)C[C@H]1C(=O)N[C@@H](CC(=O)O)C(=O)N2)", "note": "[Intermediate 16]", "values": [
      {"measurement": "Kd", "setting": "IgG [1]", "value": "< 100", "unit": "nM"},
      {"measurement": "Kd", "setting": "IgG [2]", "value": "< 100", "unit": "nM"}
    ]},
    {"binder": "cyclo([Pro(4S-NH2)]NCAWHLG[N5,N5‑dimethylglutamine]LVWCT[dP]) (disulfide 3-13; SMILES CC(C)C[C@@H]1NC(=O)[C@H](Cc2c[nH]cn2)NC(=O)[C@H](Cc2c[nH]c3ccccc23)NC(=O)[C@H](C)NC(=O)[C@@H]2CSSC[C@H](NC(=O)[C@H](Cc3c[nH]c4ccccc34)NC(=O)[C@H](C(C)C)NC(=O)[C@H](CC(C)C)NC(=O)[C@H](CCC(=O)N(C)C)NC(=O)CNC1=O)C(=O)N[C@@H]([C@@H](C)O)C(=O)N1CCC[C@@H]1C(=O)N1C[C@@H](N)C[C@H]1C(=O)N[C@@H](CC(N)=O)C(=O)N2)", "note": "[Intermediate 27]", "values": [
      {"measurement": "Kd", "setting": "IgG [1]", "value": "< 100", "unit": "nM"},
      {"measurement": "Kd", "setting": "IgG [2]", "value": "< 100", "unit": "nM"}
    ]},
    {"binder": "cyclo([Pro(4S-NH2)]DCAWHLGALVWCT[dP]) (disulfide 3-13; SMILES CC(C)C[C@@H]1NC(=O)[C@H](C)NC(=O)CNC(=O)[C@H](CC(C)C)NC(=O)[C@H](Cc2c[nH]cn2)NC(=O)[C@H](Cc2c[nH]c3ccccc23)NC(=O)[C@H](C)NC(=O)[C@@H]2CSSC[C@H](NC(=O)[C@H](Cc3c[nH]c4ccccc34)NC(=O)[C@H](C(C)C)NC1=O)C(=O)N[C@@H]([C@@H](C)O)C(=O)N1CCC[C@@H]1C(=O)N1C[C@@H](N)C[C@H]1C(=O)N[C@@H](CC(=O)O)C(=O)N2)", "note": "[Intermediate 17]", "values": [
      {"measurement": "Kd", "setting": "IgG [1]", "value": "< 100", "unit": "nM"},
      {"measurement": "Kd", "setting": "IgG [2]", "value": "< 100", "unit": "nM"}
    ]},
    {"binder": "cyclo([Pro(4S-NH2)]DCAWHLG[N5‑methylglutamine]LVWCT[dP]) (disulfide 3-13)", "note": "[Intermediate 22]", "values": [
      {"measurement": "Kd", "setting": "IgG [1]", "value": "< 100", "unit": "nM"},
      {"measurement": "Kd", "setting": "IgG [2]", "value": "< 100", "unit": "nM"}
    ]},
    {"binder": "PDCAWHLGELVWCTP (residue 1 = (2S,4S)-4-aminoproline; residue 12 = D-Trp; residue 15 = D-Pro; backbone cyclised head to tail; disulfide Cys3-Cys13)", "note": "[Intermediate 24]", "values": [
      {"measurement": "Kd", "setting": "IgG [1]", "value": "< 100", "unit": "nM"},
      {"measurement": "Kd", "setting": "IgG [2]", "value": "< 100", "unit": "nM"}
    ]},
    {"binder": "cyclo([Pro(4S-NH2)]ACAWHLGALVWCT[dP]) (disulfide 3-13; SMILES CC(C)C[C@@H]1NC(=O)[C@H](C)NC(=O)CNC(=O)[C@H](CC(C)C)NC(=O)[C@H](Cc2c[nH]cn2)NC(=O)[C@H](Cc2c[nH]c3ccccc23)NC(=O)[C@H](C)NC(=O)[C@@H]2CSSC[C@H](NC(=O)[C@H](Cc3c[nH]c4ccccc34)NC(=O)[C@H](C(C)C)NC1=O)C(=O)N[C@@H]([C@@H](C)O)C(=O)N1CCC[C@@H]1C(=O)N1C[C@@H](N)C[C@H]1C(=O)N[C@@H](C)C(=O)N2)", "note": "[Intermediate 25]", "values": [
      {"measurement": "Kd", "setting": "IgG [1]", "value": "< 100", "unit": "nM"},
      {"measurement": "Kd", "setting": "IgG [2]", "value": "< 100", "unit": "nM"}
    ]},
    {"binder": "cyclo([Pro(4S-NH2)]DCAWHLGQLVWCT[dP]) (disulfide 3-13; SMILES CC(C)C[C@@H]1NC(=O)[C@H](Cc2c[nH]cn2)NC(=O)[C@H](Cc2c[nH]c3ccccc23)NC(=O)[C@H](C)NC(=O)[C@@H]2CSSC[C@H](NC(=O)[C@H](Cc3c[nH]c4ccccc34)NC(=O)[C@H](C(C)C)NC(=O)[C@H](CC(C)C)NC(=O)[C@H](CCC(N)=O)NC(=O)CNC1=O)C(=O)N[C@@H]([C@@H](C)O)C(=O)N1CCC[C@@H]1C(=O)N1C[C@@H](N)C[C@H]1C(=O)N[C@@H](CC(=O)O)C(=O)N2)", "note": "[Intermediate 18]", "values": [
      {"measurement": "Kd", "setting": "IgG [1]", "value": "< 100", "unit": "nM"},
      {"measurement": "Kd", "setting": "IgG [2]", "value": "< 100", "unit": "nM"}
    ]},
    {"binder": "cyclo([Pro(4S-NH2)]NCAWHLGALVWCT[dP]) (disulfide 3-13; SMILES CC(C)C[C@@H]1NC(=O)[C@H](C)NC(=O)CNC(=O)[C@H](CC(C)C)NC(=O)[C@H](Cc2c[nH]cn2)NC(=O)[C@H](Cc2c[nH]c3ccccc23)NC(=O)[C@H](C)NC(=O)[C@@H]2CSSC[C@H](NC(=O)[C@H](Cc3c[nH]c4ccccc34)NC(=O)[C@H](C(C)C)NC1=O)C(=O)N[C@@H]([C@@H](C)O)C(=O)N1CCC[C@@H]1C(=O)N1C[C@@H](N)C[C@H]1C(=O)N[C@@H](CC(N)=O)C(=O)N2)", "note": "[Intermediate 28]", "values": [
      {"measurement": "Kd", "setting": "IgG [1]", "value": "< 100", "unit": "nM"},
      {"measurement": "Kd", "setting": "IgG [2]", "value": "< 100", "unit": "nM"}
    ]},
    {"binder": "PDCXWHLGELVWCTP (residue 1 = (2S,4S)-4-aminoproline; residue 4 (X) = homoserine; residue 15 = D-Pro; backbone cyclised head to tail; disulfide Cys3-Cys13)", "note": "[Intermediate 21]", "values": [
      {"measurement": "Kd", "setting": "IgG [1]", "value": "< 100", "unit": "nM"},
      {"measurement": "Kd", "setting": "IgG [2]", "value": "< 100", "unit": "nM"}
    ]}
  ]
}
